Assay results from patent publication US20090155285A1 (Eli Lilly, published 2009).
Positions count from the first letter of the chain named. Values belong to the binder of their own block, whether it stands above or below them.

Legend:
[1] = biological target: T1, mature human TGF-β3 (human, UniProt P10600 301-412); assay: cell-based or functional assay
T1 sequence: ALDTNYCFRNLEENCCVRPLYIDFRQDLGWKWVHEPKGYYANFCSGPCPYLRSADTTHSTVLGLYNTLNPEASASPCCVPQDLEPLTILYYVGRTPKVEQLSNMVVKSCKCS

[2] = biological target: T2, mature human TGF-β1 (human, UniProt P01137 279-390); assay: cell-based or functional assay
[3] = biological target: T3, mature human TGF-β2 (human, UniProt P61812 303-414); assay: cell-based or functional assay
T3 sequence: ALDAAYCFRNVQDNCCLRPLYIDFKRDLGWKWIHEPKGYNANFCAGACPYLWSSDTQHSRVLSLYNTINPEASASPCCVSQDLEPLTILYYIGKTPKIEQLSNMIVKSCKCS

[4] = biological target: T1, mature human TGF-β3; assay: BIAcore 2000 SPR, antibody captured on Protein A, TGF-β injected
Description: (§1) Alternate methods of measuring kinetic constants are known, for example: affinity of an invention antibody for TGF-β1 (R&D Systems, Cat # 240-B/CF), TGF-β2 (RDI, Cat #RDI-1035), and TGF-β3 (RDI, Cat # RDI-1036/CF) is measured by BIAcore® 2000. Binding affinity measurements for full-length monoclonal antibodies of the invention are determined using Biacore. Except as noted, all reagents and materials are purchased from BIAcore® AB (Upsala, Sweden). All measurements made at room temperature. Samples are dissolved in HBS-EP buffer (150 mM sodium chloride, 3 mM EDTA, 0.01% (w/v) surfactant P-20, and 10 mM HEPES, pH 7.4). Recombinant Protein A is immobilized on all four flow cells of a CM4 sensor chip at a level of 400-450 response units (RUs) using an amine coupling kit. Binding is evaluated using multiple analytical cycles. Each cycle is performed at a flow rate of 50 μL/min consisting of the steps: injection of 12 μL of antibody at 0.5 μg/mL, injection of 250 μL of TGF-β1 (starting at 5 nM and using two-fold serial dilutions to 0.13 nM for each cycle, with two injections for each concentration) followed by either a short (5 min) or long (120 min) delay for dissociation, and regeneration using two injections of 50 μL of 10 mM glycine hydrochloride, pH 1.5. Association and dissociation rates per cycle are made by fitting the biosensor data from a simple association model using ClampXP (Center for Biomolecular Interaction Analysis, Univ. of Utah) to extract the kₒₙ and koff rate constants; the equilibrium binding constant Kd is calculated from Kd=koff/kₒₙ.
(§2) When mAbs are measured using the described assay, the results are as stated in Table 2 below.

[5] = biological target: T2, mature human TGF-β1; assay: as above
Description: as §1, §2

[6] = biological target: T3, mature human TGF-β2; assay: as above
Description: as §1, §2

[7] = biological target: T2, mature human TGF-β1; assay: KinExA 3000, equilibrium in solution
Description: (§3) A KinExA 3000 instrument (Sapidyne Inst. Inc.) measures binding kinetics. Briefly, antigen is covalently-coupled to azlactone beads and the binding of an invention free Fab to the beads is detected on the instrument. […] After incubation, free Fab in each equilibrated sample is determined on KinExA 3000 per manufacturer instructions. Kd values are determined using KinExA 3000 software. To measure kₒₙ, individual Fabs at 2 nM are mixed with 0-240 nM of antigen using the injection method according to manufacturer's instructions, and the unbound Fab is detected. The resulting data is used to calculate the kₒₙ with KinExA 3000 software. The koff is calculated using the formula K_{d=k}off/kₒₙ. Affinity data obtained under KinExA© conditions for Fab embodiments binding TGF Beta 1 are shown below in Table 1.

[8] = biological target: T2, mature human TGF-β1; assay: KinExA 3000, solution phase, antigen-coupled beads
Description: as §3

[9] = biological target: T2, mature human TGF-β1; assay: KinExA 3000, calculated from Kd and kon
Description: as §3

T2 sequence (P01137 279-390 limits assumed): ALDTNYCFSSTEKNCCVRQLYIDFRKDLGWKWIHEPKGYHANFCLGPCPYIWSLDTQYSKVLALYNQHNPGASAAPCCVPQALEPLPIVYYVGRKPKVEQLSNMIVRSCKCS

HT-2 cell neutralization assay, IC50 (Mean ng/ml) [1]: 100 ng/mL
HT-2 cell neutralization assay, IC50 (Mean ng/ml) [2]: 215 ng/mL
HT-2 cell neutralization assay, IC50 (Mean ng/ml) [3]: 574 ng/mL
B1: 1D11.16 (antibody, from another filing, V domains shown)
VH: QVQLQQSGPELVRPGASVKLSCKASGYIFITYWMNWVKQRPGQGLEWIGQIFPASGSTNYNEMFEGKATLTVDTSSSTAYMQLSSLTSEDSAVYYCARGDGNYALDAMDYWGQGTSVTVSS
VL: DIVLTQSPASLAVSLGQRATISCRASESVDSYGNSFMHWYQQKSGQPPKLLIYLASNLESGVPARFSGSGSRTDFTLTIDPVEADDAATYYCQQNNEDPLTFGAGTKLEIK

Kd [4]: 0.851 pM
koff [4]: 1.53e-05 s⁻¹
kon [4]: 1.76e+07 M⁻¹ s⁻¹
Kd [5]: < 0.2 pM
koff [5]: 6.71e-06 s⁻¹
kon [5]: > 4e+07 M⁻¹ s⁻¹
Kd [6]: 0.265 pM
koff [6]: 6e-06 s⁻¹
kon [6]: 2.42e+07 M⁻¹ s⁻¹
HT-2 cell neutralization assay, IC50 (Mean ng/ml) [1]: 5.22 ng/mL
HT-2 cell neutralization assay, IC50 (Mean ng/ml) [2]: 0.44 ng/mL
HT-2 cell neutralization assay, IC50 (Mean ng/ml) [3]: 6.14 ng/mL
B2: mAb 12.4 (antibody, human IgG4 S228P, kappa, V domains shown)
VH: QVQLVQSGAEVKKPGASVKVSCKASGYTFTSYWMNWVRQAPGQGLEWMGQIFPALGSTNYGEMFEGRVTMTTDTSTSTAYMELRSLRSDDTAVYYCARGIGNYALDAMDYWGQGTLVTVSS
VL: DIQMTQSPSSLSASVGDRVTITCRASESVDWWGNSFMHWYQQKPGKAPKLLIYLASNLESGVPSRFSGSGSGTDFTLTISSLQPEDFATYYCQQNIEDPLTFGGGTKVEIKR
notes: Full-length monoclonal antibody, made by linking the Fab to an IgG4 Fc region

Kd [7]: 15 pM
kon [8]: 2.1e+07 M⁻¹ s⁻¹
koff [9]: 0.00031 s⁻¹
B3: Fab 3.A (Fab, V domains shown)
VH: B2 VH with L55S
VL: B2 VL with W31F
notes: The mAb was made by linking the Fab to an IgG4 Fc region, so the mAb's chains are named; The heavy chain entry also holds the Fc, which is not in the Fab

Kd [4]: 1.53 pM
koff [4]: 2.84e-05 s⁻¹
kon [4]: 2.17e+07 M⁻¹ s⁻¹
Kd [5]: < 0.2 pM
koff [5]: 9.71e-06 s⁻¹
kon [5]: > 5e+07 M⁻¹ s⁻¹
Kd [6]: 0.529 pM
koff [6]: 9.86e-06 s⁻¹
kon [6]: 2.37e+07 M⁻¹ s⁻¹
HT-2 cell neutralization assay, IC50 (Mean ng/ml) [1]: 15.8 ng/mL
HT-2 cell neutralization assay, IC50 (Mean ng/ml) [2]: 0.42 ng/mL
HT-2 cell neutralization assay, IC50 (Mean ng/ml) [3]: 3.65 ng/mL
B4: mAb 4.17 (antibody, human IgG4 S228P, kappa, V domains shown)
VH: B2 VH with A54F, L55S, G61N
VL: B2 VL with W31F, I96A
notes: as for B2

Kd [7]: 1.55 pM
kon [8]: 3.4e+07 M⁻¹ s⁻¹
koff [9]: 5.2e-05 s⁻¹
B5: Fab 12.4 (Fab, V domains shown)
VH: B2 VH
VL: B2 VL
notes: as for B3

Kd [7]: 0.28 pM
kon [8]: 2.2e+07 M⁻¹ s⁻¹
koff [9]: 6e-06 s⁻¹
B6: Fab 4.17 (Fab, V domains shown)
VH: B2 VH with A54F, L55S, G61N
VL: B2 VL with W31F, I96A
notes: as for B3

Kd [7]: 0.22 pM
kon [8]: 2.6e+07 M⁻¹ s⁻¹
koff [9]: 5.5e-06 s⁻¹
B7: Fab 12.8 (Fab, V domains shown)
VH: B2 VH with G61N
VL: B2 VL with W32Y, L54Y, I96A
notes: as for B3

Kd [4]: 0.82 pM
koff [4]: 1.28e-05 s⁻¹
kon [4]: 1.56e+07 M⁻¹ s⁻¹
Kd [5]: < 0.2 pM
koff [5]: 7.93e-06 s⁻¹
kon [5]: > 5e+07 M⁻¹ s⁻¹
Kd [6]: 0.473 pM
koff [6]: 1.11e-05 s⁻¹
kon [6]: 2.8e+07 M⁻¹ s⁻¹
HT-2 cell neutralization assay, IC50 (Mean ng/ml) [1]: 6.78 ng/mL
HT-2 cell neutralization assay, IC50 (Mean ng/ml) [2]: 0.59 ng/mL
HT-2 cell neutralization assay, IC50 (Mean ng/ml) [3]: 3.34 ng/mL
B8: mAb 12.7 (antibody, human IgG4 S228P, kappa, V domains shown)
VH: B2 VH with Y32E, G61N, F64Y
VL: B2 VL with W31F, W32Y
notes: as for B2

Kd [7]: 0.09 pM
kon [8]: 3.7e+06 M⁻¹ s⁻¹
koff [9]: 3.4e-07 s⁻¹
B9: Fab 12.7 (Fab, V domains shown)
VH: B2 VH with Y32E, G61N, F64Y
VL: B2 VL with W31F, W32Y
notes: as for B3

Kd [4]: 0.54 pM
koff [4]: 1.12e-05 s⁻¹
kon [4]: 1.85e+07 M⁻¹ s⁻¹
Kd [5]: < 0.2 pM
koff [5]: 7.92e-06 s⁻¹
kon [5]: > 5e+07 M⁻¹ s⁻¹
Kd [6]: 1 pM
koff [6]: 1.22e-05 s⁻¹
kon [6]: 2.29e+07 M⁻¹ s⁻¹
B10: mAb 12.8 (antibody, human IgG4 S228P, kappa, V domains shown)
VH: B2 VH with G61N
VL: B2 VL with W32Y, L54Y, I96A
notes: as for B2

Kd [4]: 0.926 pM
koff [4]: 2.38e-05 s⁻¹
kon [4]: 2.9e+07 M⁻¹ s⁻¹
Kd [5]: < 2 pM
koff [5]: 0.000107 s⁻¹
kon [5]: > 5e+07 M⁻¹ s⁻¹
Kd [6]: < 4 pM
koff [6]: 0.000218 s⁻¹
kon [6]: > 5e+07 M⁻¹ s⁻¹
HT-2 cell neutralization assay, IC50 (Mean ng/ml) [1]: 16.9 ng/mL
HT-2 cell neutralization assay, IC50 (Mean ng/ml) [2]: 2.62 ng/mL
HT-2 cell neutralization assay, IC50 (Mean ng/ml) [3]: 51.4 ng/mL
B11: mAb 3.A (antibody, human IgG4 S228P, kappa, V domains shown)
VH: B2 VH with L55S
VL: B2 VL with W31F
notes: as for B2
